The values below are quoted from earlier work in PMC7689341.

Data set [1] deals with IFNAR2 (Homo sapiens) (UniProt P48551).
Data set [2] has the same target. The source holds these as a separate data set.
Data set [3] concerns the target IFNAR1 (Homo sapiens) (UniProt P17181).
Data set [4] addresses IFNAR2 (Mus musculus) (UniProt O35664).
Data set [5] addresses IFNAR1 (Mus musculus) (UniProt P33896).
Data set [6] deals with IFNλR1 (Homo sapiens) (UniProt Q8IU57).
The target in data set [7] is IFNλ3/IFNλR1 complex (Homo sapiens) (UniProt Q8IZI9).
IFNλ3/IFNλR1 complex (Homo sapiens), sequence (Q8IZI9 22-196, chain 1 of 2): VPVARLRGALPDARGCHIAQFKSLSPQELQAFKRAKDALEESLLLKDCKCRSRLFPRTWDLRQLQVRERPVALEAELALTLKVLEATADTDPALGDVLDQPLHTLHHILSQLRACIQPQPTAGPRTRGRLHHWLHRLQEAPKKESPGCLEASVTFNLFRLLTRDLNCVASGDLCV
IFNλ3/IFNλR1 complex (Homo sapiens), sequence (Q8IU57 21-228, chain 2 of 2, further chain): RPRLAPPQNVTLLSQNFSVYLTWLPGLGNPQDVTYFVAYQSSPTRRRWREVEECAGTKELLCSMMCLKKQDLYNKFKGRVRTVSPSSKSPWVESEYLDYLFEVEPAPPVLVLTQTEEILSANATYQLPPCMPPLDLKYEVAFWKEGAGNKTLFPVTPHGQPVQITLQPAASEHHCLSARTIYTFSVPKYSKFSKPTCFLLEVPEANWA

Like-named read-outs stand apart in the source and are kept apart here.

IFNAR2 (Homo sapiens), sequence (P48551 27-243): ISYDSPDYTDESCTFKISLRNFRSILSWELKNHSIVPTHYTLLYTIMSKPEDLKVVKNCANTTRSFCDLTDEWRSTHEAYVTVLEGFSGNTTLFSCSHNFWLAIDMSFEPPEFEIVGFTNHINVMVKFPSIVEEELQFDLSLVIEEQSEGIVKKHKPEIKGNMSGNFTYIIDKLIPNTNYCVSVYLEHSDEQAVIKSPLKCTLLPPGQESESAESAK
IFNβ (from UniProt P01575), sequence (P01575 22-182): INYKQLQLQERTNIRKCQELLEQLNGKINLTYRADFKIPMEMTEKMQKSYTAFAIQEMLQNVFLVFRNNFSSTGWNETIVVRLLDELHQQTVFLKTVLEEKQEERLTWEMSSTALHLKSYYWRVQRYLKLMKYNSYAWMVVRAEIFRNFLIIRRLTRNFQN
IFNβ (from UniProt P01574), sequence (P01574 22-187): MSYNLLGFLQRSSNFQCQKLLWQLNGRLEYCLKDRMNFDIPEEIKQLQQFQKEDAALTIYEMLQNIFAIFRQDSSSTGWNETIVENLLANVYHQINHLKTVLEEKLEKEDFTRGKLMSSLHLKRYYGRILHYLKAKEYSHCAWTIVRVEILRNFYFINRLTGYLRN
IFNAR1 (Homo sapiens), sequence (P17181 28-436): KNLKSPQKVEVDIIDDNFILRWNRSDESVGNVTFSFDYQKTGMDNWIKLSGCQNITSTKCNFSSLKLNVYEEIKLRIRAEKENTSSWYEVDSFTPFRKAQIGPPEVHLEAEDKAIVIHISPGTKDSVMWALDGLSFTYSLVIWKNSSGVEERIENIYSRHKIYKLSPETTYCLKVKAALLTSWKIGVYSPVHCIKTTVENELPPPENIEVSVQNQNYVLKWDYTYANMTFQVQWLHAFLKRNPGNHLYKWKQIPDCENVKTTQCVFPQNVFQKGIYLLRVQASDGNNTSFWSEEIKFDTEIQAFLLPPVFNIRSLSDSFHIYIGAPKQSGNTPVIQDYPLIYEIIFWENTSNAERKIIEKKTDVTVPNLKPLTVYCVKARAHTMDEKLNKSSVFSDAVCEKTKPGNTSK
IFNλR1 (Homo sapiens), sequence (Q8IU57 21-228): as the sequence (Q8IU57 21-228, chain 2 of 2, further chain) above
IL-10R2, sequence (Q08334 20-220): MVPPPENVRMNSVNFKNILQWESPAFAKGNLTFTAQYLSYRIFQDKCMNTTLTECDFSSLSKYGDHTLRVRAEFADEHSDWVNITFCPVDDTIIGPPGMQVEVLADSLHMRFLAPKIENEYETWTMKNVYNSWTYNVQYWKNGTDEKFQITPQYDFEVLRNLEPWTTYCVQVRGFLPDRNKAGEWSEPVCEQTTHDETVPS
IFNAR1 (Mus musculus), sequence (P33896 27-429): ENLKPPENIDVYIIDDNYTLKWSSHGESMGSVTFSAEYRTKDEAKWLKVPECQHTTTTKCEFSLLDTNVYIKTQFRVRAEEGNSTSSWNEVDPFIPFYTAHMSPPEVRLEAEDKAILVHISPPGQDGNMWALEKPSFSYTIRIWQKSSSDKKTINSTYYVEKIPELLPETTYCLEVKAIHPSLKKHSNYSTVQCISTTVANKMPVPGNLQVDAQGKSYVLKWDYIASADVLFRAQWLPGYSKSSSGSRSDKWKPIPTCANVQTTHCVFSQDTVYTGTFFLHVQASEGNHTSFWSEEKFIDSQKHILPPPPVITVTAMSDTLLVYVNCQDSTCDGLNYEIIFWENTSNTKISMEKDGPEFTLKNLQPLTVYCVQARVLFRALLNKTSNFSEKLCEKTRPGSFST
IFNAR2 (Mus musculus), sequence (O35664 22-242): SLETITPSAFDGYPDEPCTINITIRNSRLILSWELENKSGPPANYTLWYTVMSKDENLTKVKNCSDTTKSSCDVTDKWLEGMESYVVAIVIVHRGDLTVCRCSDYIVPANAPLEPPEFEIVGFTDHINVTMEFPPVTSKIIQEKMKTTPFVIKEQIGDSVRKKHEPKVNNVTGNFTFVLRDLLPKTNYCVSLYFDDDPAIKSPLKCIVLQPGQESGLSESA
IFNλ3, sequence (Q8IZI9 22-196): as the sequence (Q8IZI9 22-196, chain 1 of 2) above

Broadly, the Kd is the constant that tells how readily two partners part at equilibrium. For the substance IFNα1 (from UniProt P0DY56), the Kd in data set [1] is 100 nM. On to IFNβ (from UniProt P01574), for which the equilibrium dissociation constant (Kd) in data set [2] was 0.1 nM; in data set [3], 30 nM. As to IFNβ (from UniProt P01575), the results for the equilibrium dissociation constant (Kd) in data set [4] and in data set [5] were 1700 nM and 10 nM, respectively.

IFNλ3 (from UniProt Q8IZI9): in data set [6], the dissociation constant (Kd) is 850 nM. On to IL-10R2 (from UniProt Q08334), for which the equilibrium dissociation constant (Kd) in data set [7] was 15 µM.
